Target: T1, TRAF6 (UniProt Q9Y4K3 1-522)
T1 sequence: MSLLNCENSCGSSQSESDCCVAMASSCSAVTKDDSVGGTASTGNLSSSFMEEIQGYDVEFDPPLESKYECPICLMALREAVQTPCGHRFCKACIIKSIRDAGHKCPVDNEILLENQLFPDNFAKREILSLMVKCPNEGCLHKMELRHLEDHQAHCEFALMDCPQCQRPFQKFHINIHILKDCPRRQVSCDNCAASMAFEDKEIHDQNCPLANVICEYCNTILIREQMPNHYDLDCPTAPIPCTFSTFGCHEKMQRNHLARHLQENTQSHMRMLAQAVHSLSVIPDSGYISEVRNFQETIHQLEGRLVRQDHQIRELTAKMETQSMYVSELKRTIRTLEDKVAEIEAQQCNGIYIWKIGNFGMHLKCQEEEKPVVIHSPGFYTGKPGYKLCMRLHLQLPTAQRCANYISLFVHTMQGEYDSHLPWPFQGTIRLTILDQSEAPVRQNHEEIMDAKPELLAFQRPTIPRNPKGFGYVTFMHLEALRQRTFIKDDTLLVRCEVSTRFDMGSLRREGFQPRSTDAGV
Assay: co-immunoprecipitation and western blot, HEK293T cells (FIG. 3A)

B1: wild-type NS1 (NS1-Myc/His), nonstructural protein 1 of influenza virus strain A/PR/8 (PR8), C-terminal Myc-His tag (other)
chain: MDPNTVSSFQVDCFLWHVRKRVADQELGDAPFLDRLRRDQKSLRGRGSTLGLDIETATRAGKQIVERILKEESDEALKMTMASVPASRYLTDMTLEEMSRDWSMLIPKQKVAGPLCIRMDQAIMDKNIILKANFSVIFDRLETLILLRAFTEEGAIVGEISPLPSLPGHTAEDVKNAVGVLIGGLEWNDNTVRVSETLQRFAWRSSNENGRPPLTPKQKREMAGTIRSEV
  binding result: no binding

From patent US20220226463A1 (NATIONAL CHENG KUNG UNIVERSITY, published 2022)
